Data published in the Immune Epitope Database (IEDB).

Tests used:
Assay in all cases: IEDB peptide-MHC binding, purified MHC/competitive/radioactivity; filed as Kd, often an IC50 or EC50 that approximates it; ≥ and ≤ were set here for values at or beyond the usual limits of such assays
HLA-A*02:03 = conditions: source organism: Vaccinia virus WR
HLA-A*02:06 = target: HLA-A*02:06
HLA-A*02:02 = conditions: source organism: Vaccinia virus WR
HLA-A*03:01 = target: HLA-A*03:01
HLA-A*31:01 = target: HLA-A*31:01
HLA-A*33:01 = target: HLA-A*33:01
HLA-A*68:01 = target: HLA-A*68:01
HLA-A*11:01 = target: HLA-A*11:01
[1] = source organism: Vaccinia virus WR
[2] = source organism: SARS coronavirus Tor2
[3] = source organism: Lassa virus Josiah
[4] = source organism: Lassa virus GA391

Sequence | Kd (HLA-A*03:01; [1]) [µM] | Kd (HLA-A*31:01; [1]) [µM] | Kd (HLA-A*33:01; [1]) [µM] | Kd (HLA-A*68:01; [1]) [µM] | Kd (HLA-A*11:01; [1]) [µM] | other results
LMTLDDLAI |  |  |  |  |  | Kd (HLA-A*02:03): 0.0758 µM; Kd (HLA-A*02:06; [1]): 0.288 µM; Kd (HLA-A*02:02): 0.0517 µM
ELNGKNIEDV |  |  |  |  |  | Kd (HLA-A*02:06; source organism: Homo sapiens): ≥ 69.8 µM
LLNVQTLISL |  |  |  |  |  | Kd (HLA-A*02:03): 0.0161 µM; Kd (HLA-A*02:06; [1]): 0.0967 µM; Kd (HLA-A*02:02): 0.0237 µM
HVLLPFYET |  |  |  |  |  | Kd (HLA-A*02:03): 18.6 µM; Kd (HLA-A*02:06; [1]): 1.74 µM; Kd (HLA-A*02:02): 16.4 µM
PSVNEYHMLK | 0.0102 | 0.408 | 11.6 | 0.469 | 0.0137 | 
ISLNSMYTR | 6.1 | 0.00462 | 0.0856 | 0.0133 | 0.0374 | 
VSKHWELTNK | 0.68 | 1.78 | 11.9 | 1.52 | 0.157 | 
GLFDFVNFVK | 0.000324 | 0.0661 | 1.2 | 0.00736 | 0.000911 | 
AARILSEKR | ≥ 78 | 0.0363 | 1.07 | 0.852 | 6.08 | 
FSPENKAFK | 6.25 | 6.71 | 3.92 | 0.133 | 5.02 | 
MSSSVDVDIY | ≥ 25.9 | ≥ 70 | ≥ 29.7 | 0.25 | 12.5 | 
TVYVYSRVK |  |  |  |  |  | Kd (HLA-A*03:01; [2]): 0.0675 µM; Kd (HLA-A*31:01; [2]): 0.769 µM; Kd (HLA-A*33:01; [2]): 1.07 µM; Kd (HLA-A*68:01; [2]): 0.919 µM; Kd (HLA-A*11:01; [2]): 0.145 µM
YFVCWHTHNY |  |  |  |  |  | Kd (HLA-A*03:01; [2]): 1.52 µM; Kd (HLA-A*31:01; [2]): 2.33 µM; Kd (HLA-A*33:01; [2]): 1.82 µM; Kd (HLA-A*68:01; [2]): 4.86 µM; Kd (HLA-A*11:01; [2]): 8.12 µM
TIQRFSSLRR | 0.0786 | 0.00156 | 0.00981 | 0.00724 | 0.00188 | 
TCQGSDDIR |  |  |  |  |  | Kd (HLA-A*03:01; [3]): ≥ 78 µM; Kd (HLA-A*31:01; [3]): ≥ 22.3 µM; Kd (HLA-A*33:01; [3]): 12.1 µM; Kd (HLA-A*68:01; [3]): 14.5 µM; Kd (HLA-A*11:01; [3]): ≥ 77.9 µM
KTNCCRFQEK |  |  |  |  |  | Kd (HLA-A*03:01; [2]): 0.0383 µM; Kd (HLA-A*31:01; [2]): 0.0505 µM; Kd (HLA-A*33:01; [2]): ≥ 37.7 µM; Kd (HLA-A*68:01; [2]): 4.22 µM; Kd (HLA-A*11:01; [2]): 0.0333 µM
YVGIKLGDK | 0.987 | ≥ 24.9 | ≥ 50.6 | 2.09 | 0.65 | 

Sequence | Kd (HLA-A*03:01; [1]) [µM] | Kd (HLA-A*31:01; [1]) [µM] | Kd (HLA-A*33:01; [1]) [µM] | Kd (HLA-A*68:01; [1]) [µM] | Kd (HLA-A*11:01; [1]) [µM] | other results
PFEKEFTSDY | ≥ 70.1 | ≥ 70 | ≥ 70 | ≥ 70.2 | ≥ 69.8 | 
SIGNVTRLFY | 0.00294 | 3.05 | 17.4 | 2.05 | 0.025 | 
AIVCRFDTR |  |  |  |  |  | Kd (HLA-A*03:01; [2]): 4.17 µM; Kd (HLA-A*31:01; [2]): 0.133 µM; Kd (HLA-A*33:01; [2]): 0.329 µM; Kd (HLA-A*68:01; [2]): 0.563 µM; Kd (HLA-A*11:01; [2]): 1.21 µM
YSFKLILAEY | 8.18 | 0.658 | 7.96 | 3.67 | 7.29 | 
TQNVLYENQK |  |  |  |  |  | Kd (HLA-A*03:01; [2]): ≥ 29.2 µM; Kd (HLA-A*31:01; [2]): 13.3 µM; Kd (HLA-A*33:01; [2]): ≥ 70 µM; Kd (HLA-A*68:01; [2]): 3.09 µM; Kd (HLA-A*11:01; [2]): 0.523 µM
SMTYLYNKY | 9.93 | ≥ 25 | 8.75 | 1.75 | 1.66 | 
IVNAANIHLK |  |  |  |  |  | Kd (HLA-A*03:01; [2]): 0.0511 µM; Kd (HLA-A*31:01; [2]): 2.23 µM; Kd (HLA-A*33:01; [2]): ≥ 70 µM; Kd (HLA-A*68:01; [2]): 0.0665 µM; Kd (HLA-A*11:01; [2]): 0.104 µM
AAGIIILMEY | 6.28 | 1.03 | 7.17 | 1.2 | 1.34 | 
SIILANERY | ≥ 78 | 19.9 | ≥ 77.7 | 0.607 | 0.233 | 
ALAYYNNSK |  |  |  |  |  | Kd (HLA-A*03:01; [2]): 0.0445 µM; Kd (HLA-A*31:01; [2]): 7.57 µM; Kd (HLA-A*33:01; [2]): ≥ 45.9 µM; Kd (HLA-A*68:01; [2]): 0.832 µM; Kd (HLA-A*11:01; [2]): 0.029 µM
LMSIISTFH |  |  |  |  |  | Kd (HLA-A*03:01; [4]): 2.23 µM; Kd (HLA-A*31:01; [4]): 0.481 µM; Kd (HLA-A*33:01; [4]): ≥ 77.7 µM; Kd (HLA-A*68:01; [4]): 3.16 µM; Kd (HLA-A*11:01; [4]): 11.2 µM
VLAYMLFTK |  |  |  |  |  | Kd (HLA-A*03:01; [2]): 0.000179 µM; Kd (HLA-A*31:01; [2]): 0.223 µM; Kd (HLA-A*33:01; [2]): 1.89 µM; Kd (HLA-A*68:01; [2]): 0.00796 µM; Kd (HLA-A*11:01; [2]): 0.000894 µM
DIVNEHDIK | ≥ 63.2 | ≥ 77.9 | ≥ 77.7 | 3.67 | ≥ 77.9 | 
YSKKFQESFY | 2.72 | 14.4 | ≥ 70 | 1.78 | 7.41 | 
ALSTNHGHK |  |  |  |  |  | Kd (HLA-A*03:01; [2]): 0.03 µM; Kd (HLA-A*31:01; [2]): 8.93 µM; Kd (HLA-A*33:01; [2]): ≥ 46.5 µM; Kd (HLA-A*68:01; [2]): 3.05 µM; Kd (HLA-A*11:01; [2]): 0.619 µM
VVMHINSPFK | 0.00841 | 0.123 | 11.6 | 0.0374 | 0.00256 | 
